Results as given in patent US20190248881A1.
Where two headings read alike, the source gives them in different places.

How the values were obtained:
[1] = biological target: T1, TGF-β3 (UniProt P10600); experiment: SPR; cycle 10, TGF-B3
T1 sequence (looked up): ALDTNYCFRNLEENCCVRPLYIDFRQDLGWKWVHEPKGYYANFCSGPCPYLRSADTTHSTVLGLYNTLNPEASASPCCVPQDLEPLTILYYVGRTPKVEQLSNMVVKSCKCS

[2] = biological target: T1, TGF-β3; experiment: SPR; average of cycles 10, 12, 14, TGF-B3
[3] = biological target: T1, TGF-β3
[4] = biological target: TGF-β1 (UniProt P01137)
[5] = biological target: T1, TGF-β3; experiment: SPR; cycle 12, TGF-B3
[6] = biological target: T2, TGF-β2 (UniProt P61812); experiment: SPR; cycle 10, TGF-B2
T2 sequence (looked up): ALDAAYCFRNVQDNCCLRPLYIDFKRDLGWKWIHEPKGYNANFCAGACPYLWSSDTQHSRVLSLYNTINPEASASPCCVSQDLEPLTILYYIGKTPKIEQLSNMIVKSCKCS

[7] = biological target: T1, TGF-β3; experiment: SPR; cycle 14, TGF-B3
[8] = biological target: T2, TGF-β2; experiment: SPR; cycle 12, TGF-B2
[9] = biological target: T1, TGF-β3; remark: listed apart in the source
[10] = biological target: TGF-β1 (UniProt P01137); experiment: SPR; average of cycles 10, 12, 14, TGF-B1
[11] = biological target: T1, TGF-β3; experiment: cell-based or functional assay
[12] = biological target: TGF-β1 (UniProt P01137); experiment: cell-based or functional assay
[13] = biological target: T2, TGF-β2; experiment: cell-based or functional assay
[14] = biological target: TGF-β1 (UniProt P01137); experiment: SPR; cycle 12, TGF-B1
[15] = biological target: T2, TGF-β2
[16] = biological target: TGF-β1 (UniProt P01137); experiment: SPR; cycle 10, TGF-B1
[17] = biological target: T2, TGF-β2; remark: listed apart in the source
[18] = biological target: T2, TGF-β2; experiment: SPR; cycle 14, TGF-B2
[19] = biological target: T2, TGF-β2; experiment: SPR; average of cycles 10, 12, 14, TGF-B2
[20] = biological target: TGF-β1 (UniProt P01137); remark: listed apart in the source
[21] = biological target: TGF-β1 (UniProt P01137); experiment: SPR; cycle 14, TGF-B1
[22] = biological target: T1, TGF-β3; experiment: cell-based or functional assay; parameters: unit not given beside the values
[23] = biological target: TGF-β1 (UniProt P01137); experiment: cell-based or functional assay; parameters: unit not given beside the values
[24] = biological target: T2, TGF-β2; experiment: cell-based or functional assay; parameters: unit not given beside the values

UniProt P01137, sequence (P01137 279-390 limits assumed): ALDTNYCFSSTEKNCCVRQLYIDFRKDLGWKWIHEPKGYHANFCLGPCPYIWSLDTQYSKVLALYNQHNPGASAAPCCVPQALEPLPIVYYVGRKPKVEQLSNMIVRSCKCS

B1: 1D11 (PCT-001), mouse monoclonal anti-TGF-β antibody (antibody, from another filing, V domains shown)
VH: QVQLQQSGPELVRPGASVKLSCKASGYIFITYWMNWVKQRPGQGLEWIGQIFPASGSTNYNEMFEGKATLTVDTSSSTAYMQLSSLTSEDSAVYYCARGDGNYALDAMDYWGQGTSVTVSS
VL: DIVLTQSPASLAVSLGQRATISCRASESVDSYGNSFMHWYQQKSGQPPKLLIYLASNLESGVPARFSGSGSRTDFTLTIDPVEADDAATYYCQQNNEDPLTFGAGTKLEIK
B1 gave a Kd [1] of 0.0108 nM, a koff [1] of 2.9e-06 s⁻¹ and a kon [1] of 268000 M⁻¹ s⁻¹. The Kd [2] was 0.0116 nM, the koff [2] was 3.57e-06 s⁻¹ and the kon [2] was 310000 M⁻¹ s⁻¹. For the same binder, the IC50 (read off the curve) [3] was 0.03 nM, the IC50 (read off the curve) [4] was 0.1 nM and the Kd [5] was 0.016 nM. For the same binder, the koff [5] was 5.06e-06 s⁻¹, the kon [5] was 316000 M⁻¹ s⁻¹ and the Kd [6] was 0.0832 nM. The koff [6] was 5.17e-05 s⁻¹, the kon [6] was 621000 M⁻¹ s⁻¹ and the Kd [7] was 0.00793 nM. For the same binder, the koff [7] was 2.75e-06 s⁻¹, the kon [7] was 346000 M⁻¹ s⁻¹ and the Kd [8] was 0.082 nM. The koff [8] was 5.54e-05 s⁻¹, the kon [8] was 675000 M⁻¹ s⁻¹ and the IC50 (read off the curve) [9] was 0.02 nM. The Kd [10] was 0.0873 nM, the koff [10] was 4.06e-05 s⁻¹ and the kon [10] was 470000 M⁻¹ s⁻¹. The EC50, TGF-β isoform neutralization [11] was 0.225 nM, the EC50 for neutralization of TGF-β [11] was 19 picomol/L and the EC50, TGF-β isoform neutralization [12] was 0.0478 nM. The EC50 for neutralization of TGF-β [12] was 164 picomol/L, the EC50, TGF-β isoform neutralization [13] was 0.591 nM and the EC50 for neutralization of TGF-β [13] was 382 picomol/L. For the same binder, the Kd [14] was 0.0873 nM, the koff [14] was 4.18e-05 s⁻¹ and the kon [14] was 479000 M⁻¹ s⁻¹. For the same binder, the IC50 (read off the curve) [15] was 0.2 nM, the Kd [16] was 0.102 nM and the koff [16] was 4.23e-05 s⁻¹. It also gave a kon [16] of 416000 M⁻¹ s⁻¹, an IC50 (read off the curve) [17] of 0.4 nM and a Kd [18] of 0.0723 nM. For the same binder, the koff [18] was 4.98e-05 s⁻¹, the kon [18] was 690000 M⁻¹ s⁻¹ and the Kd [19] was 0.0792 nM. The koff [19] was 5.23e-05 s⁻¹, the kon [19] was 662000 M⁻¹ s⁻¹ and the IC50 (read off the curve) [20] was 0.2 nM. For the same binder, the Kd [21] was 0.0733 nM, the koff [21] was 3.78e-05 s⁻¹ and the kon [21] was 515000 M⁻¹ s⁻¹. The IC50 for neutralization of TGF-β [22] was 0.0547, the IC50 for neutralization of TGF-β [23] was 0.0722 and the IC50 for neutralization of TGF-β [24] was 0.492.
